Test results: publication PMC4388176

Molecular target: T1, Reb1 (146-504) (Schizosaccharomyces pombe, UniProt Q9P6H9)
T1 sequence: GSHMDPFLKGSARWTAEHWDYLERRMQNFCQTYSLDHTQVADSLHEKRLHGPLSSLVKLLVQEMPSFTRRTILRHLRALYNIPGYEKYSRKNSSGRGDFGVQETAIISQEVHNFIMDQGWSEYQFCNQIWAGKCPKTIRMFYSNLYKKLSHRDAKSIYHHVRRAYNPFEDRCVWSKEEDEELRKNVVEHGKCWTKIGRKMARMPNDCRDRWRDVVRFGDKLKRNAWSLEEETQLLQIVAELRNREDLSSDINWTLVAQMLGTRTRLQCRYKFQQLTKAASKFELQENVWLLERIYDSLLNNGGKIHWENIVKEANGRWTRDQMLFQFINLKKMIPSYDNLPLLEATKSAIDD
Assay: X-ray crystallography

B1: Ter3 26-mer (crystal) (dsDNA)
DNA 1: GTAAAAGGTAAGGGTAATGCACTTTT
DNA 2: CAAAAGTGCATTACCCTTACCTTTTA
  binding result: binds
